For one test, the target named is Trio_(1284-2638) (human) (UniProt O75962).

Gαq·GDP·AlF4^-, sequence (P21279 whole entry): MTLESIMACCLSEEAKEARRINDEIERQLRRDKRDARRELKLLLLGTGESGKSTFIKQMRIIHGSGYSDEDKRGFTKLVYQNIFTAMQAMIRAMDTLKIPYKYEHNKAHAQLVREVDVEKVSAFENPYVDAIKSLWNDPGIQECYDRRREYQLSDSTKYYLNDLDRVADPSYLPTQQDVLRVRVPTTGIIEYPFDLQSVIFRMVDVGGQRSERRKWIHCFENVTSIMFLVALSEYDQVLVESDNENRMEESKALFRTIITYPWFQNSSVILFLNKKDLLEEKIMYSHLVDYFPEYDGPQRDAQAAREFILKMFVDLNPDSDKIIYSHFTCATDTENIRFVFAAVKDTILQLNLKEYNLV

In the case of “Gαq·GDP·AlF4^- (from UniProt P21279 1-359) (natural protein)”, the RhoA GEF activity (FRET-based nucleotide exchange assay with MANT-GTP), enhancement by 200 nM Gαq·GDP·AlF4^- in the test with TrioC (human) and in the test with Trio_(1284-2638) (human) was 2.5 fold each time.

The values are drawn from paper PMC9372627.
